Measured values as given in patent US20060051832A1, “Modified sarcosine oxidase, process for producing the same and reagent composition using the same” (Toyo Boseki Kabushiki Kaisha, priority 2002, published 2006).

Assays:
Type in all cases: biochemical, Arthrobacter sp. TE1826
[1] = substrate: CNCC(=O)O; assay: Km of modified sarcosine oxidase SAOM5B; conditions: other: SAOM5B, 37° C., pH 8.0
Protocol: (§1) • 100 mM Tris-HCl buffer (pH 8.0) (containing 200 mM sarcosine and 0.1% Triton X-100) • 0.1% 4-aminoantipyrine • 0.1% phenol • 25 U/mL peroxidase <Measurement Condition>
(§2) A reaction mixture is prepared by mixing the above Tris-HCl buffer, 4-aminoantipyrine solution, phenol solution and peroxidase solution at a ratio of 5:1:2:2. The reaction mixture (1 mL) is taken to a test tube, preliminarily warmed at 37° C. for about 5 min, and 0.05 mL of an enzyme solution is added to start the reaction. The reaction at 37° C. is performed accurately for 10 min, then 2.0 mL of an aqueous solution of 0.25% SDS is added to stop the reaction, and an absorbance at 500 nm of this solution is measured. In a blind test, distilled water instead of the enzyme solution is added to the reagent mixture, and the same manipulation is followed to measure the absorbance. […] The reactivity to proline was measured as a relative ratio of activities when sarcosine in the above reagent was replaced by L-proline at the same concentration. […]
(§3) Various sarcosine oxidases obtained in Example 3B and Comparative Example 1 were evaluated.
(§4) Action on proline was calculated from a relative ratio (%) of the enzyme activity using L-proline as the substrate to the enzyme activity suing sarcosine as the substrate in the above activity measurement method. […]

[2] = substrate: CNCC(=O)O; assay: Km of modified sarcosine oxidase SAOM8B; conditions: other: SAOM8B, 37° C., pH 8.0
Protocol: as §1, §2, §3, §4

[3] = substrate: CNCC(=O)O; assay: Km of modified sarcosine oxidase SAOM1B; conditions: other: SAOM1B, K89R, 37° C., pH 8.0
Protocol: as §1, §2, §3, §4

[4] = substrate: CNCC(=O)O; assay: Km of modified sarcosine oxidase SAOM7B; conditions: other: SAOM7B, 37° C., pH 8.0
Protocol: as §1, §2, §3, §4

[5] = substrate: CNCC(=O)O; assay: Km of modified sarcosine oxidase SAOM6B; conditions: other: SAOM6B, 37° C., pH 8.0
Protocol: as §1, §2, §3, §4

[6] = substrate: CNCC(=O)O; assay: Km of unmodified sarcosine oxidase (control, Comparative Example 1); conditions: other: unmodified (control), 37° C., pH 8.0
Protocol: as §1, §2, §3, §4

[7] = substrate: CNCC(=O)O; assay: Km of modified sarcosine oxidase SAOM2B; conditions: other: SAOM2B, V94G, 37° C., pH 8.0
Protocol: as §1, §2, §3, §4

B1: Arthrobacter sp. TE1826 sarcosine oxidase (SEQ ID NO:1) variant SAOM5B, V94G, E250Q, K89R (Arthrobacter sp. TE1826; E250Q/K89R/V94G) (protein)
chain: MSIKKDYDVIVVGAGSMGMAAGYYLSKQGVKTLLVDSFHPPHTNGSHHGDTRIIRHAYGEGREYVPFALRAQELWYELEKETHHKIFTRTGVLGFGPKGEAPFVAETMEAAKEHSLDVDLLEGSEINKRWPGVTVPENYNAIFEKNSGVLFSENCIRAYRELAEANGAKVLTYTPVEDFEIAEDFVKIQTAYGSFTASKLIVSMGAWNSKLLSKLNIEIPLQPYRQVVGFFECDEKKYSNTHGYPAFMVQVPTGIYYGFPSFGGCGLKIGYHTYGQKIDPDTINREFGIYPEDEGNIRKFLETYMPGATGELKSGDVCMYTKTPDEHFVIDLHPQFSNVAIAAGFSGHGFKFSSVVGETLSQLAVTGKTEHDISIFSINRPALKQKETI
- Km [1]: 3.3 mM mM

B2: Arthrobacter sp. TE1826 sarcosine oxidase (SEQ ID NO:1) variant SAOM8B, K89R, V94G, N166K, M204A, S213P, E250Q (Arthrobacter sp. TE1826; … (protein)
chain: MSIKKDYDVIVVGAGSMGMAAGYYLSKQGVKTLLVDSFHPPHTNGSHHGDTRIIRHAYGEGREYVPFALRAQELWYELEKETHHKIFTRTGVLGFGPKGEAPFVAETMEAAKEHSLDVDLLEGSEINKRWPGVTVPENYNAIFEKNSGVLFSENCIRAYRELAEAKGAKVLTYTPVEDFEIAEDFVKIQTAYGSFTASKLIVSAGAWNSKLLPKLNIEIPLQPYRQVVGFFECDEKKYSNTHGYPAFMVQVPTGIYYGFPSFGGCGLKIGYHTYGQKIDPDTINREFGIYPEDEGNIRKFLETYMPGATGELKSGDVCMYTKTPDEHFVIDLHPQFSNVAIAAGFSGHGFKFSSVVGETLSQLAVTGKTEHDISIFSINRPALKQKETI
- Km [2]: 3.4 mM mM

B3: Arthrobacter sp. TE1826 sarcosine oxidase (SEQ ID NO:1) variant SAOM1B, K89R (Arthrobacter sp. TE1826; K89R) (protein)
chain: MSIKKDYDVIVVGAGSMGMAAGYYLSKQGVKTLLVDSFHPPHTNGSHHGDTRIIRHAYGEGREYVPFALRAQELWYELEKETHHKIFTRTGVLVFGPKGEAPFVAETMEAAKEHSLDVDLLEGSEINKRWPGVTVPENYNAIFEKNSGVLFSENCIRAYRELAEANGAKVLTYTPVEDFEIAEDFVKIQTAYGSFTASKLIVSMGAWNSKLLSKLNIEIPLQPYRQVVGFFECDEKKYSNTHGYPAFMVEVPTGIYYGFPSFGGCGLKIGYHTYGQKIDPDTINREFGIYPEDEGNIRKFLETYMPGATGELKSGDVCMYTKTPDEHFVIDLHPQFSNVAIAAGFSGHGFKFSSVVGETLSQLAVTGKTEHDISIFSINRPALKQKETI
- Km [3]: 3.4 mM mM

B4: Arthrobacter sp. TE1826 sarcosine oxidase (SEQ ID NO:1) variant SAOM7B, K89R, V94G, M204A, S213P, E250Q (Arthrobacter sp. TE1826; E250Q/K89R/M204A/S213P/V94G) (protein)
chain: MSIKKDYDVIVVGAGSMGMAAGYYLSKQGVKTLLVDSFHPPHTNGSHHGDTRIIRHAYGEGREYVPFALRAQELWYELEKETHHKIFTRTGVLGFGPKGEAPFVAETMEAAKEHSLDVDLLEGSEINKRWPGVTVPENYNAIFEKNSGVLFSENCIRAYRELAEANGAKVLTYTPVEDFEIAEDFVKIQTAYGSFTASKLIVSAGAWNSKLLPKLNIEIPLQPYRQVVGFFECDEKKYSNTHGYPAFMVQVPTGIYYGFPSFGGCGLKIGYHTYGQKIDPDTINREFGIYPEDEGNIRKFLETYMPGATGELKSGDVCMYTKTPDEHFVIDLHPQFSNVAIAAGFSGHGFKFSSVVGETLSQLAVTGKTEHDISIFSINRPALKQKETI
- Km [4]: 3.4 mM mM

B5: Arthrobacter sp. TE1826 sarcosine oxidase (SEQ ID NO:1) variant SAOM6B, K89R, V94G, S213P, E250Q (Arthrobacter sp. TE1826; E250Q/K89R/S213P/V94G) (protein)
chain: MSIKKDYDVIVVGAGSMGMAAGYYLSKQGVKTLLVDSFHPPHTNGSHHGDTRIIRHAYGEGREYVPFALRAQELWYELEKETHHKIFTRTGVLGFGPKGEAPFVAETMEAAKEHSLDVDLLEGSEINKRWPGVTVPENYNAIFEKNSGVLFSENCIRAYRELAEANGAKVLTYTPVEDFEIAEDFVKIQTAYGSFTASKLIVSMGAWNSKLLPKLNIEIPLQPYRQVVGFFECDEKKYSNTHGYPAFMVQVPTGIYYGFPSFGGCGLKIGYHTYGQKIDPDTINREFGIYPEDEGNIRKFLETYMPGATGELKSGDVCMYTKTPDEHFVIDLHPQFSNVAIAAGFSGHGFKFSSVVGETLSQLAVTGKTEHDISIFSINRPALKQKETI
- Km [5]: 3.5 mM mM

B6: Arthrobacter sp. TE1826 sarcosine oxidase, wild type (unmodified), SEQ ID NO:1 (Arthrobacter sp. TE1826) (protein)
chain: MSIKKDYDVIVVGAGSMGMAAGYYLSKQGVKTLLVDSFHPPHTNGSHHGDTRIIRHAYGEGREYVPFALRAQELWYELEKETHHKIFTKTGVLVFGPKGEAPFVAETMEAAKEHSLDVDLLEGSEINKRWPGVTVPENYNAIFEKNSGVLFSENCIRAYRELAEANGAKVLTYTPVEDFEIAEDFVKIQTAYGSFTASKLIVSMGAWNSKLLSKLNIEIPLQPYRQVVGFFECDEKKYSNTHGYPAFMVEVPTGIYYGFPSFGGCGLKIGYHTYGQKIDPDTINREFGIYPEDEGNIRKFLETYMPGATGELKSGDVCMYTKTPDEHFVIDLHPQFSNVAIAAGFSGHGFKFSSVVGETLSQLAVTGKTEHDISIFSINRPALKQKETI
- Km [6]: 3.4 mM mM

B7: Arthrobacter sp. TE1826 sarcosine oxidase (SEQ ID NO:1) variant SAOM2B, V94G (Arthrobacter sp. TE1826; V94G) (protein)
chain: MSIKKDYDVIVVGAGSMGMAAGYYLSKQGVKTLLVDSFHPPHTNGSHHGDTRIIRHAYGEGREYVPFALRAQELWYELEKETHHKIFTKTGVLGFGPKGEAPFVAETMEAAKEHSLDVDLLEGSEINKRWPGVTVPENYNAIFEKNSGVLFSENCIRAYRELAEANGAKVLTYTPVEDFEIAEDFVKIQTAYGSFTASKLIVSMGAWNSKLLSKLNIEIPLQPYRQVVGFFECDEKKYSNTHGYPAFMVEVPTGIYYGFPSFGGCGLKIGYHTYGQKIDPDTINREFGIYPEDEGNIRKFLETYMPGATGELKSGDVCMYTKTPDEHFVIDLHPQFSNVAIAAGFSGHGFKFSSVVGETLSQLAVTGKTEHDISIFSINRPALKQKETI
- Km [7]: 4.1 mM mM
